Test results from US20200216495A1 (ADRX, published 2020).
Values joined by “and” are separate entries in the source; they are usually repeats but may differ in a detail not shown here. Equal entries are not always repeated. Square brackets hold non-standard residues; d marks the D form. Ends that are not written are not given here. dNle = CCCC[C@@H](N)C(=O)O

Molecular target: Tau40 P301L protein (human)
Experiment: cell-based or functional assay

Binder | IC50, Tau40 assay (ThT)
[dL][dK][dI][dR][dI][dR][dY][dH] [lkiriryh (PEPTIDE ID NO: 194)] | 650 nM and 850 nM
[dW][dL][dR][dV][dQ][dV][dK][dL][dW] [wlrvqvklw (PEPTIDE ID NO: 416)] | 1110 nM
[dL][dK][dI][dR][dI][dH][dY][dF] [lkirihyf (PEPTIDE ID NO: 250)] | 1110 nM
[dW][dI][dK][dI][dR][dW] [wikirw (PEPTIDE ID NO: 21)] | 1120 nM and 1210 nM
[dF][dR][dI][dR][dI][dK][dH][dY] [fririkhy (PEPTIDE ID NO: 114)] | 1120 nM and 1150 nM
[dL][dK][dI][dR][dI][dNle][dY] [lkiriuy (PEPTIDE ID NO: 251)] | 1120 nM
[dW][dW][dR][dF][dH][dW][dR] [wwrfhwr (PEPTIDE ID NO: 43)] | 1130 nM
[dF][dR][dL][dK][dI][dR][dH][dW] [frlkirhw (PEPTIDE ID NO: 117)] | 1150 nM and 1200 nM
[dL][dH][dL][dK][dI][dR][dY][dH] [lhlkiryh (PEPTIDE ID NO: 410)] | 1160 nM
[dW][dK][dL][dW][dL][dR][dW] (not fully specified; printed as wklwlrw) [wklwlrw (PEPTIDE ID NO: 91)] | 650 nM and 1020 nM
[dE][dL][dK][dI][dR][dI][dH][dY] [elkirihy (PEPTIDE ID NO: 253)] | 1160 nM
[dM][dR][dL][dK][dV][dR][dW] [mrlkvrw (PEPTIDE ID NO: 254)] | 1170 nM and 1570 nM
[dW][dR][dL][dK][dT][dR][dW] [wrlktrw (PEPTIDE ID NO: 255)] | 1170 nM
[dY][dL][dK][dI][dR][dI][dH][dY] [ylkirihy (PEPTIDE ID NO: 256)] | 1190 nM
[dL][dR][dI][dR][dI][dK][dH][dY] [lririkhy (PEPTIDE ID NO: 145)] | 1190 nM and 1100 nM
[dW][dH][dL][dR][dL][dR][dH][dW] [whlrlrhw (PEPTIDE ID NO: 109)] | 1190 nM
[dF][dR][dL][dR][dI][dH][dW] [frlrihw (PEPTIDE ID NO: 270)] | 1200 nM and 1470 nM
[dR][dL][dK][dI][dR][dW] [rlkirw (PEPTIDE ID NO: 23)] | 1210 nM and 1680 nM
[dW][dW][dR][dV][dK][dL][dR][dW] [wwrvklrw (PEPTIDE ID NO: 195)] | 660 nM
[dL][dR][dI][dR][dL][dH][dH][dF] [lrirlhhf (PEPTIDE ID NO: 146)] | 1220 nM and 1540 nM

Binder | IC50, Tau40 assay (ThT)
[dF][dR][dI][dR][dI][dH][dH][dW] [fririhhw (PEPTIDE ID NO: 115)] | 1240 nM and 1310 nM
[dF][dR][dL][dK][dL][dR][dH][dW] [frlklrhw (PEPTIDE ID NO: 116)] | 1240 nM
[dL][dK][dI][dR][dI][dH][dY][dH] [lkirihyh (PEPTIDE ID NO: 147)] | 1250 nM and 670 nM
[dW][dA][dL][dK][dV][dR][dW] [walkvrw (PEPTIDE ID NO: 257)] | 1250 nM
[dH][dL][dK][dI][dR][dI][dH][dY] [hlkirihy (PEPTIDE ID NO: 259)] | 1250 nM
[dF][dH][dI][dR][dI][dR][dH][dW] [fhirirhw (PEPTIDE ID NO: 138)] | 1260 nM and 1310 nM
[dY][dR][dV][dR][dI][dE][dW][dL] [yrvriewl (PEPTIDE ID NO: 159)] | 1270 nM and 1430 nM
[dW][dK][dV][dW][dV][dR]G[dW] (not fully specified (residue 7); printed as wkvwvrgw) [wkvwvrgw (PEPTIDE ID NO: 93)] | 1270 nM and 990 nM
[dW][dR][dL][dR][dM][dH][dW] [wrlrmhw (PEPTIDE ID NO: 260)] | 1280 nM
[dW][dR][dL][dW][dI][dH][dW] [wrlwihw (PEPTIDE ID NO: 428)] | 1290 nM
[dL][dK][dI][dH][dI][dR][dH][dW] [lkihirhw (PEPTIDE ID NO: 148)] | 1290 nM and 1390 nM
[dW][dR][dL][dR][dI][dH][dW][dW] [wrlrihww (PEPTIDE ID NO: 20)] | 1290 nM and 1110 nM
[dF][dR][dV][dR][dI][dR][dH][dW] [frvrirhw (PEPTIDE ID NO: 118)] | 1310 nM
[dF][dW][dR][dL][dK][dV][dR][dW] [fwrlkvrw (PEPTIDE ID NO: 261)] | 1320 nM
[dW][dR][dL][dR][dI][dH][dT] [wrlriht (PEPTIDE ID NO: 262)] | 1330 nM
[dF][dK][dL][dK][dL][dR][dH][dW] [fklklrhw (PEPTIDE ID NO: 125)] | 1340 nM and 1360 nM
[dV][dR][dW][dW][dK][dL][dR][dW] [vrwwklrw (PEPTIDE ID NO: 196)] | 680 nM
[dF][dK][dI][dH][dL][dR][dH][dW] [fkihlrhw (PEPTIDE ID NO: 124)] | 1340 nM
[dW][dR][dL][dK][dF][dR][dW] [wrlkfrw (PEPTIDE ID NO: 263)] | 1360 nM
[dF][dR][dI][dK][dL][dR][dW] [friklrw (PEPTIDE ID NO: 47)] | 1370 nM and 1460 nM

Binder | IC50, Tau40 assay (ThT)
[dF][dW][dL][dK][dL][dR][dW][dF] [fwlklrwf (PEPTIDE ID NO: 15)] | 1380 nM and 2080 nM
[dF][dK][dL][dH][dL][dR][dH][dW] [fklhlrhw (PEPTIDE ID NO: 126)] | 1390 nM and 1510 nM
[dW][dE][dL][dK][dV][dR][dW][dW] [welkvrww (PEPTIDE ID NO: 264)] | 1390 nM
[dR][dI][dK][dI][dR][dW] [rikirw (PEPTIDE ID NO: 26)] | 1400 nM and 1490 nM
[dF][dR][dL][dR][dI][dW][dW] [frlriww (PEPTIDE ID NO: 423)] | 1410 nM
[dW][dR][dL][dK][dV][dR][dW][dL] [wrlkvrwl (PEPTIDE ID NO: 197)] | 680 nM
[dL][dR][dI][dR][dI][dR][dF][dH] [lririrfh (PEPTIDE ID NO: 152)] | 1410 nM and 1870 nM
[dH][dR][dL][dK][dV][dR][dW][dW] [hrlkvrww (PEPTIDE ID NO: 265)] | 1410 nM
[dL][dK][dI][dR][dL][dH][dH][dW] [lkirlhhw (PEPTIDE ID NO: 143)] | 1420 nM and 1070 nM
[dH][dW][dR][dL][dK][dV][dR][dW] [hwrlkvrw (PEPTIDE ID NO: 266)] | 1420 nM
[dY][dW][dR][dL][dK][dV][dR][dW] [ywrlkvrw (PEPTIDE ID NO: 268)] | 1430 nM
[dL][dK][dI][dR][dI][dH][dY][dA] [lkirihya (PEPTIDE ID NO: 269)] | 1450 nM
[dR][dW][dR][dW][dR][dW] [rwrwrw (PEPTIDE ID NO: 17)] | 1460 nM
[dF][dR][dI][dR][dL][dR][dW] [frirlrw (PEPTIDE ID NO: 56)] | 1460 nM
[dW][dL][dK][dI][dR][dI][dH][dY] [wlkirihy (PEPTIDE ID NO: 198)] | 690 nM
[dR][dI][dR][dI][dR][dW] [ririrw (PEPTIDE ID NO: 75)] | 1470 nM and 710 nM
[dL][dK][dI][dR][dI][dA][dY] [lkiriay (PEPTIDE ID NO: 271)] | 1480 nM
[dW][dR][dL][dR][dI][dA][dW] [wrlriaw (PEPTIDE ID NO: 272)] | 1490 nM
[dW][dQ][dL][dK][dV][dR][dW] [wqlkvrw (PEPTIDE ID NO: 273)] | 1490 nM
[dL][dK][dI][dR][dI][dH][dR][dH] [lkirihrh (PEPTIDE ID NO: 274)] | 1510 nM
